Data on one substance can be found in publication PMC5327507, “Enhancing the thermostability of α-L-rhamnosidase from Aspergillus terreus and the enzymatic conversion of rutin to isoquercitrin by adding sorbitol” (BMC Biotechnology, 2017).

Broadly, the Km is the substrate concentration at which the rate is half of its maximum.

For this data set, the system named is C[C@@H]1O[C@@H](Oc2ccc([N+](=O)[O-])cc2)[C@H](O)[C@H](O)[C@H]1O. The data set can be described thus: purified protein. Conditions: pH 6.5, 65 °C, no additives.

Take “α-L-rhamnosidase from A. terreus (Rha; synthetic gene MRha; RASE) (Aspergillus terreus)”: the Michaelis-Menten constant (Km) is 481 ± 10 µM.
